Source: publication PMC9452295 (2022)

Tests used:
[1] = molecular target: T1, MRAS(1–178)–Avi, biotinylated, wild type (human, UniProt O14807 1-178, biotin on the Avi tag); assay: SPR; +PP1Cα(P50R)
T1 chain: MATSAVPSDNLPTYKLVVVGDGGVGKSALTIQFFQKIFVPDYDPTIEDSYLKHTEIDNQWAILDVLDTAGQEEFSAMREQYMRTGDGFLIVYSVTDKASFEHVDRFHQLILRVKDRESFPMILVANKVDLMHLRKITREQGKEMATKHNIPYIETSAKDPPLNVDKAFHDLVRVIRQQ

[2] = molecular target: T1, MRAS(1–178)–Avi, biotinylated, wild type; assay: SPR; +PP1Cα

B1: SHOC2 (residues 80–582, LRR domain), wild type (domain or fragment)
chain: GTRKKSSNAEVIKELNKCREENSMRLDLSKRSIHILPSSIKELTQLTELYLYSNKLQSLPAEVGCLVNLMTLALSENSLTSLPDSLDNLKKLRMLDLRHNKLREIPSVVYRLDSLTTLYLRFNRITTVEKDIKNLSKLSMLSIRENKIKQLPAEIGELCNLITLDVAHNQLEHLPKEIGNCTQITNLDLQHNELLDLPDTIGNLSSLSRLGLRYNRLSAIPRSLAKCSALEELNLENNNISTLPESLLSSLVKLNSLTLARNCFQLYPVGGPSQFSTIYSLNMEHNRINKIPFGIFSRAKVLSKLNMKDNQLTSLPLDFGTWTSMVELNLATNQLTKIPEDVSGLVSLEVLILSNNLLKKLPHGLGNLRKLRELDLEENKLESLPNEIAYLKDLQKLVLTNNQLTTLPRGIGHLTNLTHLGLGENLLTHLPEEIGTLENLEELYLNDNPNLHSLPFELALCSKLSIMSIENCPLSHLPPQIVAGGPSFIIQFLKMQGPYRAMV
Kd [1]: 34.8 nM
Kd [2]: 86.3 nM
